First the molecules themselves.
B1: IGF1(Y^B16L^B17) (ligand)
chain 1: GIVDECCFRSCDLRRLEMYCA
chain 2: GPETLCGAELVDALYLVCGDRGFYFNKPT
notes: Two chain heteroduplex; may be the same molecule as m22; also called IGF1 (Y^B16L^B17) analog; IGF1 A:B(Y^B16L^B17)
B2: IGF1(Y^B16L^B17)(AlaPro)^A-1,0 (ligand)
chain 1: APGIVDECCFRSCDLRRLEMYCA
chain 2: GPETLCGAELVDALYLVCGDRGFYFNKPT
B3: IGF1(Y^B16L^B17)(p-NH2-F)^A19amide (ligand)
chain 1: GIVDECCFRSCDLRRLEM[Phe(4-NH2)]CA
chain 2: GPETLCGAELVDALYLVCGDRGFYFNKPT
modifications: disulfide I:6-I:11, I:20-II:18, I:7-II:6; not fully specified (C-terminus); also: amide in name, site not given here
notes: also called IGF1 A:B(Y^B16L^B17)(p-NH2-F)^A19amide; IGF1 (Y^B16L^B17) A(p-NH2-F)^19
B4: IGF-1 A:B (H5D10Y16L17) DPI (ligand)
chain 1: GIVDECCFRSCDLRRLEMYCA-NH2
chain 2: GPEHLCGADLVDALYLVCGDRGFY-NH2
modifications: disulfide I:6-I:11, I:20-II:18, I:7-II:6
B5: IGF-1 A (H8 A9 N21):B(H5D10Y16L17) DPI A-COOH (ligand)
chain 1: GIVDECCHASCDLRRLEMYCN-OH
chain 2: GPEHLCGADLVDALYLVCGDRGFY-NH2
modifications: disulfide I:6-I:11, I:20-II:18, I:7-II:6
B6: IGF-1 A:B (E10Y16L17) DPI (ligand)
chain 1: GIVDECCFRSCDLRRLEMYCA-NH2
chain 2: GPETLCGAELVDALYLVCGDRGFY-NH2
modifications: disulfide I:6-I:11, I:20-II:18, I:7-II:6
B7: IGF-1 A (H8 A9 N21):B(H5D10Y16L17 A22) DPI A-COOH (ligand)
chain 1: GIVDECCHASCDLRRLEMYCN
chain 2: GPEHLCGADLVDALYLVCGDAGFY
B8: IGF-1 A:B(D10Y16L17) DPI A-COOH (ligand)
chain 1: GIVDECCFRSCDLRRLEMYCA-OH
chain 2: GPETLCGADLVDALYLVCGDRGFY-NH2
modifications: disulfide I:6-I:11, I:20-II:18, I:7-II:6
B9: IGF-1 A:B(E10Y16L17) (ligand)
chain 1: GIVDECCFRSCDLRRLEMYCA
chain 2: GPETLCGAELVDALYLVCGDRGFYFNKPT
modifications: disulfide I:6-I:11, I:20-II:18, I:7-II:6; not fully specified (C-terminus)
B10: IGF-1 A:IGF-1 B(1-8)-In (9-17)-IGF-1 B(18-30) (ligand)
chain 1: GIVDECCFRSCDLRRLEMYCA-NH2
chain 2: GPETLCGSHLVEALYLVCGDRGFYFNKPT-NH2
modifications: disulfide I:6-I:11, I:20-II:18, I:7-II:6
B11: IGF-1 A:In (1-17)-IGF-1 B (18-30) (ligand)
chain 1: GIVDECCFRSCDLRRLEMYCA-NH2
chain 2: FVNQHLCGSHLVEALYLVCGDRGFYFNKPT-NH2
modifications: disulfide I:6-I:11, I:20-II:19, I:7-II:7
B12: IGF-1 A:In B(1-5)-IGF-1 B(YL)(6-30) (ligand)
chain 1: GIVDECCFRSCDLRRLEMYCA
chain 2: FVNQHLCGAELVDALYLVCGDRGFYFNKPT
modifications: not fully specified (bridges); cysteine pairing not given here; also: C-terminal amide, chain not given here
B13: IGF-1 A:B(E10 Y16L17)-E31E32 B-COOH (ligand)
chain 1: GIVDECCFRSCDLRRLEMYCA-NH2
chain 2: GPETLCGAELVDALYLVCGDRGFYFNKPTEE-OH
modifications: disulfide I:6-I:11, I:20-II:18, I:7-II:6
B14: IGF-1 A:B (ligand)
chain 1: GIVDECCFRSCDLRRLEMYCA-NH2
chain 2: GPETLCGAELVDALQFVCGDRGFYFNKPT-NH2
modifications: disulfide I:6-I:11, I:20-II:18, I:7-II:6
notes: also called IGF-1 A and B chain heteroduplex
B15: IGF-1 A:B (H5D10Y16L17) (S=O)DPI (ligand)
chain 1: GIVDECCFRSCDLRRLEMYCA-NH2
chain 2: GPEHLCGADLVDALYLVCGDRGFY-NH2
modifications: disulfide I:6-I:11, I:20-II:18, I:7-II:6; also: (S=O), residue not given here
notes: the only Met stands at A18
B16: IGF-2 AB(YL) (ligand)
chain 1: not shown
chain 2: AYRPSETLCGGELVDTLYLVCGDRGFYFSRPA
modifications: C-terminal amide
B17: MIU-69: B0, A14-PEG10K di-PEGylated B^1(H5,Y16,L17)25-C^1(K8)-A^1(K14, N18,21) (ligand)
chain: {PEG 10 kDa}-GPEHLCGAELVDALYLVCGDRGFYGYGSSSRKAPQTGIVDECCFRSCDLK(PEG 10 kDa)RLENYCN
modifications: disulfide 18-56, 42-47, 6-43
B18: MIU-58: B1-PEG20K-B1- Dimer (ligand)
chain: {PEG 20 kDa}-GPEHLCGAELVDALYLVCGDRGFYGYGSSSRRAPQTGIVDECCFRSCDLRRLENYCN
modifications: disulfide 18-56, 42-47, 6-43; also: dimer: two chains linked head to head via 20 kDa PEG
B19: MIU-67: B0, C8-PEG10K di-PEGylated B^1(H5,Y16,L17)25-C^1(K8)-A^1(N18,21) (ligand)
chain: {PEG 10 kDa}-GPEHLCGAELVDALYLVCGDRGFYGYGSSSRK(PEG 10 kDa)APQTGIVDECCFRSCDLRRLENYCN
modifications: disulfide 18-56, 42-47, 6-43
B20: MIU-35: B^1(H5, H10, Y16, L17)25-C^1-A^1 (H8, N18, N21) (ligand)
chain: GPEHLCGAHLVDALYLVCGDRGFYGYGSSSRRAPQTGIVDECCHRSCDLRRLENYCN
B21: MIU-68: B0, B22-PEG10K di-PEGylated B^1(H5,Y16,L17, K22)25-C^1(K8)-A^1(N18,21) (ligand)
chain: {PEG 10 kDa}-GPEHLCGAELVDALYLVCGDK(PEG 10 kDa)GFYGYGSSSRKAPQTGIVDECCFRSCDLRRLENYCN
modifications: disulfide 18-56, 42-47, 6-43
B22: MIU-57: B1-PEG20K B^1(H5,Y16,L17)25-C^1-A^1(N18,21) (ligand)
chain: {PEG 20 kDa}-GPEHLCGAELVDALYLVCGDRGFYGYGSSSRRAPQTGIVDECCFRSCDLRRLENYCN
modifications: disulfide 18-56, 42-47, 6-43
B23: DP20 Lys C (two chain form of DP20) (ligand)
chain 1: GPEHLCGAHLVDALYLVCGDRGFYSSSSRAPPPSLPSPSRLPGPSDTPILPQK
chain 2: GIVDECCHRSCDLRRLENYCN
B24: DP20: GE5K-B chain-CTP(K)-A Chain (ligand)
chain: GEEEEEKGPEHLCGAHLVDALYLVCGDRGFYSSSSRAPPPSLPSPSRLPGPSDTPILPQKGIVDECCHRSCDLRRLENYCN
B25: DP22LysC (ligand)
chain 1: APPPSLPSPSRLPGPSDTPILPQEEEEERGPEHLCGAHLVDALYLVCGDRGFYSSSSRAPPPSLPSPSRLPGPSDTPILPQK
chain 2: GIVDECCHRSCDLRRLENYCN
B26: DP22: CTP-E5R-B chain-CTP(K)-A Chain (ligand)
chain: MGSSSSKAPPPSLPSPSRLPGPSDTPILPQEEEEERGPEHLCGAHLVDALYLVCGDRGFYSSSSRAPPPSLPSPSRLPGPSDTPILPQKGIVDECCHRSCDLRRLENYCN

“And” between values parts separate entries of the source, which are not always exact repeats. Equal values may be shown once. Bridges are numbered along the chain shown (N, C = ends). Roman numbers before positions name the chains, in order. Where no end group is shown, it is not given here. [ ]: non-standard residue; d: D form. Phe(4-NH2) = Nc1ccc(C[C@H](N)C(=O)O)cc1

26 molecules from patent publication US20150299285A1 (INDIANA UNIVERSITY RESEARCH AND TECHNOLOGY, published 2015) can be followed below.

For one test, the target named is T1, human insulin receptor (human, UniProt P06213 28-1382).
T1 construct: whole, on cells
The test is described as follows: competition with 125I-insulin, receptor membranes, SPA.
One may read the IC50 as the point on the concentration scale where inhibition reaches its midpoint. The low end stands for greater potency, the high end for weaker potency. As for B1, the IC50 worked out at 0.51 nM.

A further test addresses T1, human insulin receptor. Described as above. This is another data set of the same source.
In turn, B2 displayed an IC50 of 1.93 nM.

The next test concerns the target T1, human insulin receptor. The description is as above. The source holds these as a separate data set.
In turn, B3 registered an IC50 of 1.08 nM.

The target in another test is T2, human IGF-1 receptor (human, UniProt P08069 31-1367).
T2 construct: whole, on cells; also called IGF-IR; IGR-1R
The test is described as follows: competition with 125I-IGF-1, receptor membranes, SPA.
B4: the “% IGF-1 (in test)” value worked out at 11.2%, the “% native IGF-1 activity (0.55 nM)” value stood at 11.8% and the IC50 stood at 4.66 nM.
On to B5, for which the “% IGF-1 (in test)” value came out at 12.9%, the “% native IGF-1 activity (0.55 nM)” value stood at 13.6% and the IC50 is 4.03 nM.
As to B6, the “% IGF-1 (in test)” value is 3.3%, the “% native IGF-1 activity (0.55 nM)” value is 2.4% and the IC50 was found to be 22.9 nM.
With B7, the “% IGF-1 (in test)” value stood at 2.3%, the “% native IGF-1 activity (0.55 nM)” value was found to be 2.4% and the IC50 amounted to 22.8 nM.
Regarding B8, the “% IGF-1 (in test)” value is 7.7%, the “% native IGF-1 activity (0.55 nM)” value is 8.1% and the 50% inhibitory concentration (IC50) came to 6.79 nM.
Regarding B9, the IC50 is 7.85 nM and 12.2 nM.
Regarding B10, the “% IGF-1 (in test)” value was found to be 0.3%, the “% native IGF-1 activity (0.55 nM)” value came out at 0.4% and the IC50 stood at 131 nM.
Regarding B11, the “% IGF-1 (in test)” value is 0.9%, the “% native IGF-1 activity (0.55 nM)” value was found to be 0.9% and the IC50 worked out at 62.5 nM.
As for B12, the “% IGF-1 (in test)” value turned out to be 3.6%, the “% native IGF-1 activity (0.55 nM)” value is 2% and the IC50 was found to be 27.5 nM.
For B13 the same measures were 3%, 3.1% and 17.5 nM.

The next test deals with T1, human insulin receptor. The test is described as follows: competition with 125I-insulin, receptor membranes, SPA. This is another data set of the same source.
With B14, the “% insulin (in test)” value stood at 5.8%, the “% native insulin activity (0.6 nM)” value was found to be 5.8% and the IC50 turned out to be 10.4 nM.
Consider B15, for which the “% insulin (in test)” value was determined as 316% and the 50% inhibitory concentration (IC50) was 0.25 nM.
As for B4, the “% insulin (in test)” value came to 479% and the IC50 stood at 0.16 nM.
Take B5: the half-maximal inhibitory concentration (IC50) is 0.05 nM and 0.09 nM.
As for B7, the concentration for half-maximal inhibition (IC50) came out at 0.12 nM.
As for B8, the half-maximal inhibitory concentration (IC50) is 0.2 nM and 0.42 nM and 0.26 nM.
On to B9, for which the IC50 is 0.66 nM and 0.51 nM.
As for B10, the “% insulin (in test)” value worked out at 19.1%, the “% native insulin activity (0.6 nM)” value was found to be 37.7% and the IC50 is 1.59 nM.
In the case of B11, the IC50 was 2.77 nM and 2.67 nM and 2.48 nM.
Same read-out and setting: in the case of B16 it was 6.81 nM.

For another test, the target named is T2, human IGF-1 receptor. The test is described as follows: cell-based or functional assay.
Turning to B17, the “% Insulin Activity (in vitro; assay not stated)” value is below 0.1%.
On to B18, for which the “% Insulin Activity (in vitro; assay not stated)” value was found to be 2.6%.
Still for that read-out and setting: in the case of B19 it was below 0.1%; in that of B20, 3.2%; in that of B21, below 0.1%.
Consider B22, for which the “% Insulin Activity (in vitro; assay not stated)” value was 1.2%.

The next test addresses T2, human IGF-1 receptor. In words: cell-based or functional assay. This is another data set of the same source.
Regarding B23, the “EC50, phosphorylation (FIG. 18C)” value amounted to 8.23 nM.
The same measure, in the same setting: in the case of B24 it was 316 nM; in that of B25, 14.8 nM.
The same measure, in the same setting: with B26 the figure was 83.1 nM.

In the next test the target is T1, human insulin receptor. In words: cell-based or functional assay.
Regarding B8, the “% Insulin, total phosphorylation” value was 1580%.
With B9, the “% Insulin, total phosphorylation” value was 49.2%.

The next test has as its target T2, human IGF-1 receptor. The test is described as follows: cell-based or functional assay. The source holds these as a separate data set.
With B4, the “% IGF, total phosphorylation” value was 7.1%.
As for B5, the “% IGF, total phosphorylation” value worked out at 181%.
With B7, the “% IGF, total phosphorylation” value was found to be 7.7%.
On to B8, for which the “% IGF, total phosphorylation” value was 112%.
Consider B9, for which the “% IGF, total phosphorylation” value came out at 13%.
